Results as given in patent US20210238260.

B1: FIXa-Y155F/R338E/T343R/R403E (protein)
chain 1: YNSGKLEEFVQGNLERECMEEKCSFEEAREVFENTERTTEFWKQYVDGDQCESNPCLNGGSCKDDINSYECWCPFGFEGKNCELDVTCNIKNGRCEQFCKNSADNKVVCSCTEGYRLAENQKSCEPAVPFPCGRVSVSQTSKLTR
chain 2: VVGGEDAKPGQFPWQVVLNGKVDAFCGGSIVNEKWIVTAAHCVETGVKITVVAGEHNIEETEHTEQKRNVIRIIPHHNYNAAINKYNHDIALLELDEPLVLNSYVTPICIADKEYTNIFLKFGSGYVSGWGRVFHKGRSALVLQYLRVPLVDRATCLESTKFRIYNNMFCAGFHEGGRDSCQGDSGGPHVTEVEGTSFLTGIISWGEECAMKGKYGIYTKVSEYVNWIKEKTKLT
B2: FIXa-D104N/K106S/Y155F/R318Y/R338E/R403E/E410N (mature FIX numbering) (protein)
chain 1: YNSGKLEEFVQGNLERECMEEKCSFEEAREVFENTERTTEFWKQYVDGDQCESNPCLNGGSCKDDINSYECWCPFGFEGKNCELDVTCNIKNGRCEQFCKNSANNSVVCSCTEGYRLAENQKSCEPAVPFPCGRVSVSQTSKLTR
chain 2: VVGGEDAKPGQFPWQVVLNGKVDAFCGGSIVNEKWIVTAAHCVETGVKITVVAGEHNIEETEHTEQKRNVIRIIPHHNYNAAINKYNHDIALLELDEPLVLNSYVTPICIADKEYTNIFLKFGSGYVSGWGRVFHKGYSALVLQYLRVPLVDRATCLESTKFTIYNNMFCAGFHEGGRDSCQGDSGGPHVTEVEGTSFLTGIISWGEECAMKGKYGIYTKVSEYVNWIKNKTKLT
B3: FIXa-Y155F/K247N/N249S/R318Y/R338E/T343R/R403E (protein)
chain 1: YNSGKLEEFVQGNLERECMEEKCSFEEAREVFENTERTTEFWKQYVDGDQCESNPCLNGGSCKDDINSYECWCPFGFEGKNCELDVTCNIKNGRCEQFCKNSADNKVVCSCTEGYRLAENQKSCEPAVPFPCGRVSVSQTSKLTR
chain 2: VVGGEDAKPGQFPWQVVLNGKVDAFCGGSIVNEKWIVTAAHCVETGVKITVVAGEHNIEETEHTEQNRSVIRIIPHHNYNAAINKYNHDIALLELDEPLVLNSYVTPICIADKEYTNIFLKFGSGYVSGWGRVFHKGYSALVLQYLRVPLVDRATCLESTKFRIYNNMFCAGFHEGGRDSCQGDSGGPHVTEVEGTSFLTGIISWGEECAMKGKYGIYTKVSEYVNWIKEKTKLT
B4: FIXa-Y155F/K247N/N249S/T343R/R403E (protein)
chain 1: YNSGKLEEFVQGNLERECMEEKCSFEEAREVFENTERTTEFWKQYVDGDQCESNPCLNGGSCKDDINSYECWCPFGFEGKNCELDVTCNIKNGRCEQFCKNSADNKVVCSCTEGYRLAENQKSCEPAVPFPCGRVSVSQTSKLTR
chain 2: VVGGEDAKPGQFPWQVVLNGKVDAFCGGSIVNEKWIVTAAHCVETGVKITVVAGEHNIEETEHTEQNRSVIRIIPHHNYNAAINKYNHDIALLELDEPLVLNSYVTPICIADKEYTNIFLKFGSGYVSGWGRVFHKGRSALVLQYLRVPLVDRATCLRSTKFRIYNNMFCAGFHEGGRDSCQGDSGGPHVTEVEGTSFLTGIISWGEECAMKGKYGIYTKVSEYVNWIKEKTKLT
B5: FIXa-R338E/T343R/R403E (protein)
chain 1: YNSGKLEEFVQGNLERECMEEKCSFEEAREVFENTERTTEFWKQYVDGDQCESNPCLNGGSCKDDINSYECWCPFGFEGKNCELDVTCNIKNGRCEQFCKNSADNKVVCSCTEGYRLAENQKSCEPAVPFPCGRVSVSQTSKLTR
chain 2: VVGGEDAKPGQFPWQVVLNGKVDAFCGGSIVNEKWIVTAAHCVETGVKITVVAGEHNIEETEHTEQKRNVIRIIPHHNYNAAINKYNHDIALLELDEPLVLNSYVTPICIADKEYTNIFLKFGSGYVSGWGRVFHKGRSALVLQYLRVPLVDRATCLESTKFRIYNNMFCAGFHEGGRDSCQGDSGGPHVTEVEGTSFLTGIISWGEECAMKGKYGIYTKVSEYVNWIKEKTKLT
B6: FIXa-Y155F/R338E/T343R/R403E/E410S (protein)
chain 1: YNSGKLEEFVQGNLERECMEEKCSFEEAREVFENTERTTEFWKQYVDGDQCESNPCLNGGSCKDDINSYECWCPFGFEGKNCELDVTCNIKNGRCEQFCKNSADNKVVCSCTEGYRLAENQKSCEPAVPFPCGRVSVSQTSKLTR
chain 2: VVGGEDAKPGQFPWQVVLNGKVDAFCGGSIVNEKWIVTAAHCVETGVKITVVAGEHNIEETEHTEQKRNVIRIIPHHNYNAAINKYNHDIALLELDEPLVLNSYVTPICIADKEYTNIFLKFGSGYVSGWGRVFHKGRSALVLQYLRVPLVDRATCLESTKFRIYNNMFCAGFHEGGRDSCQGDSGGPHVTEVEGTSFLTGIISWGEECAMKGKYGIYTKVSEYVNWIKSKTKLT
B7: FIXa-D203N/F205T/R318Y/E410N (mature FIX numbering) (protein)
chain 1: YNSGKLEEFVQGNLERECMEEKCSFEEAREVFENTERTTEFWKQYVDGDQCESNPCLNGGSCKDDINSYECWCPFGFEGKNCELDVTCNIKNGRCEQFCKNSADNKVVCSCTEGYRLAENQKSCEPAVPFPCGRVSVSQTSKLTR
chain 2: VVGGEDAKPGQFPWQVVLNGKVNATCGGSIVNEKWIVTAAHCVETGVKITVVAGEHNIEETEHTEQKRNVIRIIPHHNYNAAINKYNHDIALLELDEPLVLNSYVTPICIADKEYTNIFLKFGSGYVSGWGRVFHKGYSALVLQYLRVPLVDRATCLRSTKFTIYNNMFCAGFHEGGRDSCQGDSGGPHVTEVEGTSFLTGIISWGEECAMKGKYGIYTKVSRYVNWIKNKTKLT
B8: FIXa-Y155F/K247N/N249S/R338E/T343R/R403E/E410N (protein)
chain 1: YNSGKLEEFVQGNLERECMEEKCSFEEAREVFENTERTTEFWKQYVDGDQCESNPCLNGGSCKDDINSYECWCPFGFEGKNCELDVTCNIKNGRCEQFCKNSADNKVVCSCTEGYRLAENQKSCEPAVPFPCGRVSVSQTSKLTR
chain 2: VVGGEDAKPGQFPWQVVLNGKVDAFCGGSIVNEKWIVTAAHCVETGVKITVVAGEHNIEETEHTEQNRSVIRIIPHHNYNAAINKYNHDIALLELDEPLVLNSYVTPICIADKEYTNIFLKFGSGYVSGWGRVFHKGRSALVLQYLRVPLVDRATCLESTKFRIYNNMFCAGFHEGGRDSCQGDSGGPHVTEVEGTSFLTGIISWGEECAMKGKYGIYTKVSEYVNWIKNKTKLT
B9: FIXa-R318Y/R338E/T343R/R403E/E410S (protein)
chain 1: YNSGKLEEFVQGNLERECMEEKCSFEEAREVFENTERTTEFWKQYVDGDQCESNPCLNGGSCKDDINSYECWCPFGFEGKNCELDVTCNIKNGRCEQFCKNSADNKVVCSCTEGYRLAENQKSCEPAVPFPCGRVSVSQTSKLTR
chain 2: VVGGEDAKPGQFPWQVVLNGKVDAFCGGSIVNEKWIVTAAHCVETGVKITVVAGEHNIEETEHTEQKRNVIRIIPHHNYNAAINKYNHDIALLELDEPLVLNSYVTPICIADKEYTNIFLKFGSGYVSGWGRVFHKGYSALVLQYLRVPLVDRATCLESTKFRIYNNMFCAGFHEGGRDSCQGDSGGPHVTEVEGTSFLTGIISWGEECAMKGKYGIYTKVSEYVNWIKSKTKLT
B10: FIXa-A103N/N105S/Y155F/R318Y/R338E/R403E/E410N (mature FIX numbering) (protein)
chain 1: YNSGKLEEFVQGNLERECMEEKCSFEEAREVFENTERTTEFWKQYVDGDQCESNPCLNGGSCKDDINSYECWCPFGFEGKNCELDVTCNIKNGRCEQFCKNSNDSKVVCSCTEGYRLAENQKSCEPAVPFPCGRVSVSQTSKLTR
chain 2: VVGGEDAKPGQFPWQVVLNGKVDAFCGGSIVNEKWIVTAAHCVETGVKITVVAGEHNIEETEHTEQKRNVIRIIPHHNYNAAINKYNHDIALLELDEPLVLNSYVTPICIADKEYTNIFLKFGSGYVSGWGRVFHKGYSALVLQYLRVPLVDRATCLESTKFTIYNNMFCAGFHEGGRDSCQGDSGGPHVTEVEGTSFLTGIISWGEECAMKGKYGIYTKVSEYVNWIKNKTKLT
B11: FIXa-Y155F/N260S/R338E/T343R/R403E (protein)
chain 1: YNSGKLEEFVQGNLERECMEEKCSFEEAREVFENTERTTEFWKQYVDGDQCESNPCLNGGSCKDDINSYECWCPFGFEGKNCELDVTCNIKNGRCEQFCKNSADNKVVCSCTEGYRLAENQKSCEPAVPFPCGRVSVSQTSKLTR
chain 2: VVGGEDAKPGQFPWQVVLNGKVDAFCGGSIVNEKWIVTAAHCVETGVKITVVAGEHNIEETEHTEQKRNVIRIIPHHNYSAAINKYNHDIALLELDEPLVLNSYVTPICIADKEYTNIFLKFGSGYVSGWGRVFHKGRSALVLQYLRVPLVDRATCLESTKFRIYNNMFCAGFHEGGRDSCQGDSGGPHVTEVEGTSFLTGIISWGEECAMKGKYGIYTKVSEYVNWIKEKTKLT
B12: FIXa-Y155F/I251S/R338E/T343R/R403E (protein)
chain 1: YNSGKLEEFVQGNLERECMEEKCSFEEAREVFENTERTTEFWKQYVDGDQCESNPCLNGGSCKDDINSYECWCPFGFEGKNCELDVTCNIKNGRCEQFCKNSADNKVVCSCTEGYRLAENQKSCEPAVPFPCGRVSVSQTSKLTR
chain 2: VVGGEDAKPGQFPWQVVLNGKVDAFCGGSIVNEKWIVTAAHCVETGVKITVVAGEHNIEETEHTEQKRNVSRIIPHHNYNAAINKYNHDIALLELDEPLVLNSYVTPICIADKEYTNIFLKFGSGYVSGWGRVFHKGRSALVLQYLRVPLVDRATCLESTKFRIYNNMFCAGFHEGGRDSCQGDSGGPHVTEVEGTSFLTGIISWGEECAMKGKYGIYTKVSEYVNWIKEKTKLT
B13: FIXa-K247N/N249S/R318Y/R338E/T343R/R403E (protein)
chain 1: YNSGKLEEFVQGNLERECMEEKCSFEEAREVFENTERTTEFWKQYVDGDQCESNPCLNGGSCKDDINSYECWCPFGFEGKNCELDVTCNIKNGRCEQFCKNSADNKVVCSCTEGYRLAENQKSCEPAVPFPCGRVSVSQTSKLTR
chain 2: VVGGEDAKPGQFPWQVVLNGKVDAFCGGSIVNEKWIVTAAHCVETGVKITVVAGEHNIEETEHTEQNRSVIRIIPHHNYNAAINKYNHDIALLELDEPLVLNSYVTPICIADKEYTNIFLKFGSGYVSGWGRVFHKGYSALVLQYLRVPLVDRATCLESTKFRIYNNMFCAGFHEGGRDSCQGDSGGPHVTEVEGTSFLTGIISWGEECAMKGKYGIYTKVSEYVNWIKEKTKLT

What was measured:
[1] = molecular target: Factor X, P00742
[2] = molecular target: Factor X (FX), P00742
Sequence of Factor X (FX), P00742 (P00742 whole entry, looked up): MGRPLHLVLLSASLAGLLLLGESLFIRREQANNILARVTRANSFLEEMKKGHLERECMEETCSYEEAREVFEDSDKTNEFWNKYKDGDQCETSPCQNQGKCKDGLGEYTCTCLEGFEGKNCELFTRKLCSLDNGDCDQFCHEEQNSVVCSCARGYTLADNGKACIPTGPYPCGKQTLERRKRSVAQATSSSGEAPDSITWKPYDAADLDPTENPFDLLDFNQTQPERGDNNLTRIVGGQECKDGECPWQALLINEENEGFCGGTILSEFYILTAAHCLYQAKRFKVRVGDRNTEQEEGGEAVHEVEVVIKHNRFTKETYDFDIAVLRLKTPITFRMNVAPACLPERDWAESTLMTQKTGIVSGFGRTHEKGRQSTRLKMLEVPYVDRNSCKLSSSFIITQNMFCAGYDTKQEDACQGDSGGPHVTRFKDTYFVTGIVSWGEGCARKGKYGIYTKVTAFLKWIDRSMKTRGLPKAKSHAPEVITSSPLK

Sequence of Factor X, P00742 (P00742 whole entry, looked up): as above

Protein | % of WT kcat/KM [1] | kcat [1] | kcat/KM [1] | KM [2]
B1 | 429% | 5.2 s⁻¹ | 2e+08 M⁻¹ s⁻¹ | 0.0289 µM
B2 | 394% | – | 1.8e+08 M⁻¹ s⁻¹ | –
B3 | 630% | 10.6 s⁻¹ | 2.9e+08 M⁻¹ s⁻¹ | 0.0365 µM
B4 | 184% | 4.7 s⁻¹ | 8.5e+07 M⁻¹ s⁻¹ | 0.0596 µM
B5 | 663% | 6.9 s⁻¹ | 3.1e+08 M⁻¹ s⁻¹ | 0.0235 µM
B6 | 629% | 6.8 s⁻¹ | 2.9e+08 M⁻¹ s⁻¹ | 0.0239 µM
B7 | 88% | – | 3.9e+07 M⁻¹ s⁻¹ | –
B8 | 805% | 9.8 s⁻¹ | 3.7e+08 M⁻¹ s⁻¹ | 0.0264 µM
B9 | 962% | 7.6 s⁻¹ | 4.4e+08 M⁻¹ s⁻¹ | 0.019 µM
B10 | 283% | – | 1.3e+08 M⁻¹ s⁻¹ | –
B11 | 203% | 6.4 s⁻¹ | 9.4e+07 M⁻¹ s⁻¹ | 0.0692 µM
B12 | 651% | 5.9 s⁻¹ | 3e+08 M⁻¹ s⁻¹ | 0.0196 µM
B13 | 886% | 9.2 s⁻¹ | 4.1e+08 M⁻¹ s⁻¹ | 0.0284 µM
